Data as given in patent US20110165161A1, “ANTI-EPCAM ANTIBODIES THAT INDUCE APOPTOSIS OF CANCER CELLS AND METHODS USING SAME” (priority 2009, published 2011).
Changes are numbered by the printed parent chain.

What was measured:
[1] = biological target: T1, human EpCAM (epithelial cell adhesion/activating molecule) (human, UniProt P16422 24-314); experiment: cell-based or functional assay
T1 sequence: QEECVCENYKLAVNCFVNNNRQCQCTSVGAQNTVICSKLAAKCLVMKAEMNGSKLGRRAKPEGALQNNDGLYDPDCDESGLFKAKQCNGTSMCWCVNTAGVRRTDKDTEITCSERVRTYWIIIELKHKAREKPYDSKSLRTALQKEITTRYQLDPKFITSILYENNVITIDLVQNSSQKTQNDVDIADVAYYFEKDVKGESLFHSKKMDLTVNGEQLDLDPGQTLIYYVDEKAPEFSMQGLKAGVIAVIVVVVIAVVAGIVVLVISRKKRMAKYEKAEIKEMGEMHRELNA

[2] = biological target: T1, human EpCAM (epithelial cell …); experiment: cell-based or functional assay; remark: listed apart in the source
[3] = biological target: T1, human EpCAM (epithelial cell …); experiment: flow cytometry, CHO/EpCAM cells, 0.1 µg/ml antibody
Protocol: A 300× dilution of human cell hyper-immune serum (HPS 300×) was used as binding positive control for both cell lines here. After 1 hr incubation at 4° C., cells were washed twice with 200 μl FACS buffer (1×PBS containing 1% FBS), stained with 100 μl of 1 μg/ml goat-anti-mouse IgG-PE (Southern Biotech, Cat. No. 1032-09) in FACS buffer and then incubated at 4° C. for 30 min. Cells were washed thrice with FACS buffer and analyzed by flow cytometry (BD LSR, BD Life Sciences).

[4] = biological target: T2, EGFI-Cr1 wild type (first EGF-like repeat of human EpCAM fused to the constant region of human immunoglobulin … (human, UniProt P01857-1 99-330 = IgG part)); experiment: direct ELISA, coated EGFI-Cr1 fusion, 0.1 µg/ml antibody
T2 construct: cDNA covered aa 1-63; Expressed in COS-7 cells; also called WT; EpCAM EGF-1 fusion protein WT
Protocol: (§1) A direct ELISA was used for testing the reactivity of anti-EpCAM antibodies toward variant EpCAM mutants. Briefly, purified EpCAM EGF-1 fusion proteins (WT, Q24A, E25K, E26D, A35T, N37R, F39A, V40E, N41A, N42E, N43A, R44G, Q45A, Q47A or T49A) and irrelevant control (CEA-Cr1) were pre-diluted to 0.5 μg/ml in coating buffer (8.4 g NaHCO₃, 3.4 g Na₂CO₃ in 1 L H₂O, pH 9.5) and aliquoted (100 μl/well) into 96-well plates. […] Plates were then washed 3 times with PBST followed by the addition of the enzyme substrate TMB (BD Biosciences, Cat. No. 555214). […] The optical densities at 450 nm wavelength were measured on an ELISA plate reader.

EGFI-Cr1 Q24A = biological target: T3, EGFI-Cr1 Q24A (human, UniProt P16422 25-63); experiment: as above
T3 construct: not shown: The fused constant region of human immunoglobulin gamma 1 heavy chain (Cr1)
T3 chain: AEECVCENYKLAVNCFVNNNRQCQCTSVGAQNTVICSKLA
Protocol: as §1

EGFI-Cr1 E25K = biological target: T4, EGFI-Cr1 E25K (human, UniProt P16422 24-63); experiment: as above
T4 construct: not shown: The fused constant region of human immunoglobulin gamma 1 heavy chain (Cr1)
T4 chain: T3 chain with A1Q, E2K
Protocol: as §1

EGFI-Cr1 E26D = biological target: T5, EGFI-Cr1 E26D (human, UniProt P16422 24-63); experiment: as above
T5 construct: not shown: The fused constant region of human immunoglobulin gamma 1 heavy chain (Cr1)
T5 chain: T3 chain with A1Q, E3D
Protocol: as §1

EGFI-Cr1 A35T = biological target: T6, EGFI-Cr1 A35T (human, UniProt P16422 24-63); experiment: as above
T6 construct: not shown: The fused constant region of human immunoglobulin gamma 1 heavy chain (Cr1)
T6 chain: T3 chain with A1Q, A12T
Protocol: as §1

EGFI-Cr1 N37R = biological target: T7, EGFI-Cr1 N37R (human); experiment: as above
T7 construct: not shown: The fused constant region of human immunoglobulin gamma 1 heavy chain (Cr1)
T7 chain: T3 chain with A1Q, N14R
Protocol: as §1

EGFI-Cr1 F39A = biological target: T8, EGFI-Cr1 F39A (human, UniProt P16422 24-63); experiment: as above
T8 construct: not shown: The fused constant region of human immunoglobulin gamma 1 heavy chain (Cr1)
T8 chain: T3 chain with A1Q, F16A
Protocol: as §1

EGFI-Cr1 V40E = biological target: T9, EGFI-Cr1 V40E (human); experiment: as above
T9 construct: not shown: The fused constant region of human immunoglobulin gamma 1 heavy chain (Cr1)
T9 chain: T3 chain with A1Q, V17E
Protocol: as §1

EGFI-Cr1 N41A = biological target: T10, EGFI-Cr1 N41A (human, UniProt P16422 24-63); experiment: as above
T10 construct: not shown: The fused constant region of human immunoglobulin gamma 1 heavy chain (Cr1)
T10 chain: T3 chain with A1Q, N18A
Protocol: as §1

EGFI-Cr1 N42E = biological target: T11, EGFI-Cr1 N42E (human, UniProt P16422 24-63); experiment: as above
T11 construct: not shown: the constant region of human immunoglobulin gamma 1 heavy chain (Cr1) fused at the C-terminus
T11 chain: T3 chain with A1Q, N19E
Protocol: as §1

EGFI-Cr1 N43A = biological target: T12, EGFI-Cr1 N43A (human, UniProt P16422 24-63); experiment: as above
T12 construct: not shown: the constant region of human immunoglobulin gamma 1 heavy chain (Cr1) fused at the C-terminus
T12 chain: T3 chain with A1Q, N20A
Protocol: as §1

EGFI-Cr1 R44G = biological target: T13, EGFI-Cr1 R44G (human, UniProt P16422 24-63); experiment: as above
T13 construct: not shown: the constant region of human immunoglobulin gamma 1 heavy chain (Cr1) fused at the C-terminus
T13 chain: T3 chain with A1Q, R21G
Protocol: as §1

EGFI-Cr1 Q45A = biological target: T14, EGFI-Cr1 Q45A (human, UniProt P16422 24-63); experiment: as above
T14 construct: not shown: the constant region of human immunoglobulin gamma 1 heavy chain (Cr1) fused at the C-terminus
T14 chain: T3 chain with A1Q, Q22A
Protocol: as §1

EGFI-Cr1 Q47A = biological target: T15, EGFI-Cr1 Q47A (human, UniProt P16422 24-63); experiment: as above
T15 construct: not shown: the constant region of human immunoglobulin gamma 1 heavy chain (Cr1) fused at the C-terminus
T15 chain: T3 chain with A1Q, Q24A
Protocol: as §1

EGFI-Cr1 T49A = biological target: T16, EGFI-Cr1 T49A (human, UniProt P16422 24-63); experiment: as above
T16 construct: not shown: the constant region of human immunoglobulin gamma 1 heavy chain (Cr1) fused at the C-terminus
T16 chain: T3 chain with A1Q, T26A
Protocol: as §1

B1: murine monoclonal antibody 6D11 (antibody, mouse IgG1, V domains shown)
VH: EVQLVESGGDLVKPGGSLKLSCAASGFAFDSYGMSWIRQTPGTRLEWVATISSGGYYTYYEDNVKGRFIISRDNAKNTLDLQMSGLKSEDAATYYCARRGNYDVDYYAMDYWGQGTSVIVSS
VL: DVVLTQIPLSLPVSLGDQASISCRSSQSLEHSNGNTYLHWYLQKPGQSPKLLIYKVSNRFSGVPDRFSGSGSGTDFTLKISRVEAEDLGVYFCSQSTHVPPWTFGGGTKLEFKR
notes: Mouse IgG1, kappa, from hybridoma; also called m338-6D11.8
% Annexin V/PI-positive cells, DLD-1, 1.0 µg/ml mAb [1]: 28%
% Annexin V/PI-positive cells, DLD-1, 3.0 µg/ml mAb [1]: 53%
% Annexin V/PI-positive cells, DLD-1, 10 µg/ml mAb [1]: 62%
% Annexin V/PI-positive cells, FaDu, 1.0 µg/ml mAb [1]: 26%
% Annexin V/PI-positive cells, FaDu, 3.0 µg/ml mAb [1]: 39%
% Annexin V/PI-positive cells, FaDu, 10 µg/ml mAb [1]: 37%
% Annexin V/PI-positive cells, LNCaP, 1.0 µg/ml mAb [1]: 38%
% Annexin V/PI-positive cells, LNCaP, 3.0 µg/ml mAb [1]: 43%
% Annexin V/PI-positive cells, LNCaP, 10 µg/ml mAb [1]: 44%
% Annexin V/PI-positive cells, NCI-H520, 1.0 µg/ml mAb [1]: 38%
% Annexin V/PI-positive cells, NCI-H520, 3.0 µg/ml mAb [1]: 42%
% Annexin V/PI-positive cells, NCI-H520, 10 µg/ml mAb [1]: 49%
% Annexin V/PI-positive cells, NCI-N87, 1.0 µg/ml mAb [1]: 41%
% Annexin V/PI-positive cells, NCI-N87, 3.0 µg/ml mAb [1]: 51%
% Annexin V/PI-positive cells, NCI-N87, 10 µg/ml mAb [1]: 57%
% Annexin V/PI-positive cells, NIH:OVCAR-3, 1.0 µg/ml mAb [1]: 46%
% Annexin V/PI-positive cells, NIH:OVCAR-3, 3.0 µg/ml mAb [1]: 52%
% Annexin V/PI-positive cells, NIH:OVCAR-3, 10 µg/ml mAb [1]: 55%
% Annexin V/PI-positive cells, T-47D, 1.0 µg/ml mAb [1]: 25%
% Annexin V/PI-positive cells, T-47D, 3.0 µg/ml mAb [1]: 40%
% Annexin V/PI-positive cells, T-47D, 10 µg/ml mAb [1]: 44%
% of Annexin V + PI staining (untreated background subtracted), NCI-H358, 10 µg/ml mAb, Exp1 [2]: 45%
% of Annexin V + PI staining (untreated background subtracted), NCI-H358, 10 µg/ml mAb, Exp2 [2]: 40%
% of Annexin V + PI staining (untreated background subtracted), NCI-H358, 10 µg/ml mAb, Exp3 [2]: 44%
% of Annexin V + PI staining (untreated background subtracted), NCI-H358, 10 µg/ml mAb, Exp4 [2]: 43%
% of Annexin V + PI staining (untreated background subtracted), NCI-H358, 10 µg/ml mAb, Exp5 [2]: 40%
MFI [3]: 1350 MFI
relative binding activity (% of WT) [4]: 100%
relative binding activity (% of WT) (EGFI-Cr1 Q24A): 47%
relative binding activity (% of WT) (EGFI-Cr1 E25K): 4%
relative binding activity (% of WT) (EGFI-Cr1 E26D): 57%
relative binding activity (% of WT) (EGFI-Cr1 A35T): 39%
relative binding activity (% of WT) (EGFI-Cr1 N37R): 69%
relative binding activity (% of WT) (EGFI-Cr1 F39A): 23%
relative binding activity (% of WT) (EGFI-Cr1 V40E): 2%
relative binding activity (% of WT) (EGFI-Cr1 N41A): 2%
relative binding activity (% of WT) (EGFI-Cr1 N42E): 83%
relative binding activity (% of WT) (EGFI-Cr1 N43A): 65%
relative binding activity (% of WT) (EGFI-Cr1 R44G): 2%
relative binding activity (% of WT) (EGFI-Cr1 Q45A): 8%
relative binding activity (% of WT) (EGFI-Cr1 Q47A): 33%
relative binding activity (% of WT) (EGFI-Cr1 T49A): 67%
